This is an account of results in publication PMC9307593.

In one assay the target is PARP1-Flag. In words: proximity ligation; MiaPaCa-2 cells transfected with PARP1-Flag; mouse anti-Flag and rabbit anti-NUPR1 antibodies; untreated or 24 h with ZZW-115 1.5 uM, 5-FU 10 uM, olaparib 25 uM or 5-FU + olaparib; foci counted with ImageJ.

B1: recombinant wild-type NUPR1 (natural protein)
chain: MATFPPATSAPQQPPGPEDEDSSLDESDLYSLAHSYLGGGGRKGRTKREAAANTNRPSPGGHERKLVTKLQNSERKKRGARR
On to B1, for which the inhibition of PARP1 enzymatic activity in an acellular PARP1 activity assay with 2 and 4 µM rNUPR1 (26.5% at 2 µM, 48.4% at 4 µM) in the assay with recombinant PARP1 was 48.4%.

B2: NUPR1 (detected with the anti-NUPR1 antibody in MiaPaCa-2 cells) (natural protein)
chain: MATFPPATSAPQQPPGPEDEDSSLDESDLYSLAHSYLGGGGRKGRTKREAAANTNRPSPGGHERKLVTKLQNSERKKRGARR
Turning to B2, in the assay with PARP1-Flag, the PLA foci/cell (cells treated with 5-FU) came to 94.7 foci/cell, the PLA foci/cell (cells treated with ZZW-115) was found to be 12.5 foci/cell and the PLA foci/cell (control condition) came to 59.5 foci/cell.
